Measured values as given in US20090074771A1 (MacroGenics, published 2009).

How the values were obtained:
[1] = biological target: human FcγRIIB (CD32B) on cells (human) (UniProt P31994); assay: double-staining FACS on CHO cells with full-length FcγRIIB, isotype control pre-incubation
[2] = biological target: T1, FcγRIIIA coated on ELISA plates (UniProt P08637 17-208, limits assumed); assay: direct ELISA, receptor-coated plate
T1 construct: 100 ng/well on the plate

[3] = biological target: T2, CD32A (H131 form) on THP-1 monocytic cells (human, UniProt P12318 34-317); assay: FACS on THP-1 cells
T2 construct: whole, on cells
T2 sequence (looked up): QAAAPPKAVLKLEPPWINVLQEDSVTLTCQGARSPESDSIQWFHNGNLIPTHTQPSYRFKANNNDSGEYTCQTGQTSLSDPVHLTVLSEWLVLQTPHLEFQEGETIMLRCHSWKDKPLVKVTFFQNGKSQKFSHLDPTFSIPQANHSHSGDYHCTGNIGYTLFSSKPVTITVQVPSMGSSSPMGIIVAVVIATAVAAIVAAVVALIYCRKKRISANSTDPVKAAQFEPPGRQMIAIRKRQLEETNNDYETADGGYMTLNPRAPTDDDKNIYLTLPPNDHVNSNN
Experimental: Recognition of CD32B on the cell surface. Experiments were carried out to test the ability of the antibodies to discriminate CD32B from CD32A expressed on cells and to recognize the native CD32B molecule on human cell lines.

[4] = biological target: T3, soluble extracellular domain of human FcγRIIB (CD32B), produced in mammalian (293/293H) cells (human, UniProt P31994 43-217); assay: direct ELISA, receptor-coated plate
T3 construct: extracellular domain; also called mammalian FcγRIIB; soluble monomeric human CD32B
T3 sequence (looked up): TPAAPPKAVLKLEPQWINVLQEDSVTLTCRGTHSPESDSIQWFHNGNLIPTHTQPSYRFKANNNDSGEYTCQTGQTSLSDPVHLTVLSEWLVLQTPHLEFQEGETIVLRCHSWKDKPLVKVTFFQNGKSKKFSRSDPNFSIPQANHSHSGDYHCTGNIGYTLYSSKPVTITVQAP

[5] = biological target: T4, soluble extracellular domain of human CD32A-R131 (human, UniProt P12318 34-217); assay: SPR (BIAcore), antibody captured, soluble monomeric receptor injected
T4 construct: extracellular domain; Monomeric analyte in BIAcore, 100 nM
T4 sequence (looked up): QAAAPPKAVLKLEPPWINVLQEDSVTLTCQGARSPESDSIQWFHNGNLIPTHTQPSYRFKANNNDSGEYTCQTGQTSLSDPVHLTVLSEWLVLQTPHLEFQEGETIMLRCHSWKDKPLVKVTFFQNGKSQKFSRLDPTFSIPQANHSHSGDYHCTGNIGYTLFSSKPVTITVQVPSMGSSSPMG
Experimental: The capturing antibody, a F(ab′)2 fragment of a goat anti-mouse Fc-specific antibody (Jackson Immunoresearch, West Grove, Pa.), was immobilized on the CM-5 sensor chip according to the procedure recommended by the manufacturer. Briefly, the carboxyl groups on the sensor chip surface were activated with an injection of a solution containing 0.2M N-ethyl-N-(3diethylamino-propyl) carbodiimide and 0.05M N-hydroxy-succinimide. The F(ab′)2 fragment was then injected over the activated CM-5 surface in 10 mM sodium-acetate, pH 5.0, at flow rate 5 μl/min for 420 sec, followed by 1 M ethanolamine for deactivation. Binding experiments were performed in HBS-P buffer containing 110 mM HEPES, pH 7.4, 150 mM NaCl, and 0.005% P20 surfactant. Each monoclonal antibody was captured on the CM-5 chip by injecting a 300 nM-antibody solution at flow rate 5 μl/min for 240 sec, followed by an injection of the monomeric soluble receptors at concentration of 100 nM and a flow rate 50 μl/min for 120 sec with dissociation time 180 sec. Regeneration of the F(ab′)2 GAM surface was performed by pulse injection of 50 mM glycine, pH 1.5 and 50 mM NaOH. […] Resulted curves were analyzed by separate ka/kd fit. KD values were calculated as average of four curves at two different concentrations. […]

T1 sequence (P08637 17-208 limits assumed): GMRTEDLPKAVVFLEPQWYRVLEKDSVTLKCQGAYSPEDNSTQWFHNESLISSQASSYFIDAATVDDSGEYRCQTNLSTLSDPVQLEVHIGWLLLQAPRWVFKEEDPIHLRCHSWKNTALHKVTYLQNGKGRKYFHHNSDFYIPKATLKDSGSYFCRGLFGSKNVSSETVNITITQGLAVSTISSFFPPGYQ

aggregated human IgG (ligand)
percent of cells stained [1]: 60%

B1: mouse monoclonal antibody produced by clone 3H7 (antibody, V domains shown)
VH: EVKFEESGGGLVQPGGSMKLSCAASGFTFSDAWMDWVRQGPEKGLEWVAEIRNKANNLATYYAESVKGRFTIPRDDSKSSVYLHMNSLRAEDTGIYYCYSPFAYWGQGTLVTVSA
VL: DIQMTQSPSSLSASLGERVSLTCRASQEISGYLSWLQQKPDGTIRRLIYAASTLDSGVPKRFSGSWSGSDYSLTISSLESEDFADYYCLQYVSYPYTFGGGTKLEIK
notes: also called 3H7 antibody; 3H7 supernatant
binding result [2]: no binding

B2: mouse monoclonal antibody produced by clone 2B6 (antibody, V domains shown)
VH: QVQLQQPVTELVRPGASVMLSCKASDYPFTNYWIHWVKQRPGQGLEWIGVIDPSDTYPNYNKKFKGKATLTVVVSSSTAYMQLSSLTSDDSAVYYCARNGDSDYYSGMDYWGQGTSVTVSS
VL: DILLTQSPAILSVSPGERVSFSCRTSQSIGTNIHWYQQRTNGFPRLLIKNVSESISGIPSRFSGSGSGTDFILSINSVESEDIADYYCQQSNTWPFTFGGGTKLEIK
notes: also called 2B6 antibody; m2B6
binding result [3]: no binding
fold binding relative to AT10, FL18.26 and IV.3 [4]: ≤ 4.5 fold
binding result [5]: no binding (tested: 100 nM soluble receptor)
